Reference: paper PMC6547012, “TCP Transcription Factors Associate with PHYTOCHROME INTERACTING FACTOR 4 and CRYPTOCHROME 1 to Regulate Thermomorphogenesis in Arabidopsis thaliana” (iScience, 2019)

Molecular target: T1, FLAG-CRY1 (Arabidopsis thaliana, UniProt Q43125 1-681)
T1 construct: CRYPTOCHROME 1 (CRY1), Arabidopsis thaliana; source: E. coli-purified
Assay: pull-down; in vitro pull-down; MBP or MBP-TCP17 incubated with FLAG-CRY1 for 2 h at 4°C; immunoblot with anti-MBP or anti-FLAG
Conditions: both partners purified

T1 sequence (Q43125 whole entry): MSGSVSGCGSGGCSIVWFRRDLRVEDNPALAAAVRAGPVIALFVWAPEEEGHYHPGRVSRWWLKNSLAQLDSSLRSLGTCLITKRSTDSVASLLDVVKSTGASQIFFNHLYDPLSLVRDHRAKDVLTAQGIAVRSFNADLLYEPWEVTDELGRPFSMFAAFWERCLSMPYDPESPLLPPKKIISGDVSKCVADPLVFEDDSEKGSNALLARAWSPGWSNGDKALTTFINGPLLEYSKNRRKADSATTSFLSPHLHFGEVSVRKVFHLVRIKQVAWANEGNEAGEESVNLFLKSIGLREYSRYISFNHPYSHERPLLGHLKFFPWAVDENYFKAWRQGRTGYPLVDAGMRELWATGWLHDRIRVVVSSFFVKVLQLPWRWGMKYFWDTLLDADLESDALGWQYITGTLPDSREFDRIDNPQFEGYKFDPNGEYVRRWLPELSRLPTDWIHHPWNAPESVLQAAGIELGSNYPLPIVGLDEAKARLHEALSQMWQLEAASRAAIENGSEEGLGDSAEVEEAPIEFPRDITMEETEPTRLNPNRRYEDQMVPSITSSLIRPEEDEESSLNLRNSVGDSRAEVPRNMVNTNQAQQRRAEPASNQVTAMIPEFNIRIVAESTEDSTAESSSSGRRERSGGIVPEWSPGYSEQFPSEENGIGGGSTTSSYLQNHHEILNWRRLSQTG

- binding result: binds
B1: MBP-TCP17 (natural protein, Arabidopsis thaliana, UniProt Q9LEZ9 1-242, looked up)
chain: MGIKKEDQKSSLSLLTQRWNNPRIVRVSRAFGGKDRHSKVCTVRGLRDRRIRLSVMTAIQVYDLQERLGLSQPSKVIDWLLEVAKNDVDLLPPLQFPPGFHQLNPNLTGLGESFPGVFDLGRTQREALDLEKRKWVNLDHVFDHIDHHNHFSNSIQSNKLYFPTITSSSSSYHYNLGHLQQSLLDQSGNVTVAFSNNYNNNNLNPPAAETMSSLFPTRYPSFLGGGQLQLFSSTSSQPDHIE
notes: TCP17, Arabidopsis thaliana; also called MBP-tagged TCP17; source: E. coli expressed and purified
